Results: the nanobody polyreactivity screen of Harvey et al. (2022)

Experiment: yeast display, Sf9 membrane polyspecificity reagent, FACS + sequencing; frameworks hold sequencing errors
Method in brief: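 Synthetic nanobody libraries on Saccharomyces cerevisiae BJ5465 were galactose-induced for 36–48 hours, stained 1 hour at 4 °C with 10% biotinylated, detergent-solubilized Sf9 membrane reagent and enriched on streptavidin microbeads. FACS then separated cells into low and high (top ~1%) gates by anti-HA (expression) and streptavidin (reagent binding) fluorescence. Genes were colony-PCR amplified, MiSeq 2 × 250 sequenced and CDR-length filtered. A clone's polyreactivity label is that of its gate of origin.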

Row | Sequence | polyreactivity (PSR sort gate)
1 | QVQLVDSGGGLVQAGGILRLSSPASGSTFKYYTMGRSRQAPGKEREWVAGITLSGPTTYYADSVKGRFTISRDNAKNTVYLQMNSLKPEDTAVYYCAADYYHDFNAYYYWGQGTQVTVSS | low polyreactivity
2 | QVQLVESGGGLVQAGGSLRLSCAASGRIFGGYAMGWYRQAPGKERELVASITGGGTTDYADSVKGRFTISRDNAKNTVYLQMNSLKPEDTAVYNCAIRTHQFGVSRSYNTYYYWGQGTQVTVSS | low polyreactivity
3 | QVQLVESGGGLVQAGGSLRLSCAASGSTFFSYAMGWYRQAPGKERELVAAITSNGGTTHYADSVKGRFTISRDNAKNTVYLQMNSLKPEDTADYYCAKAQGHVRGSRGLQGGRYDYWGQGTQVTVSS | low polyreactivity
4 | QVQLVESGGGLLQAGGSLRLSCAASGFTFYPNAMGWYRQAPGKERELVAAISRSGSSTYYADSVKGRFTISRDNAKNTVYLQMNSLKPEDTAVYYCNRYGRQYDFYYWGQGTQVTVSS | high polyreactivity
5 | QVELVESGGGLVQAGGSLRLRCAASGLTFYYYPMGWYRQAPGKERELFAAIASVGSTYYADSVKGRFTISRDNATNTVYLQMNSLKPDDTAVYYCAAKSFWWHEDYWGQGTQVTVSS | low polyreactivity
6 | QVQLVESGGGLVQAGGSLRLSCAASGSIFKVYAMGWYRQAPGKERELVASISYSGGSTYYADSVKGRFTISRDNAKNTVYLQMNSLKPEDTAVYYCNADTITYQGYDYGYWGQGTQVTVSS | low polyreactivity
7 | QVQLVESGGGLVQAGGSLRLSCAASGRTFQRNVMGWYRQAPGKERELVAAISSSGGGTYYADSVQGRFTISRANAKNTVYLQMNSLKPDDTAVYYCAARYRSYGGYGYYYWGLGTQVTVSS | high polyreactivity
8 | QVQLVESGGGLVQAGGILRLICAASGITFVSYGMVWYRQAPRKERELVAAITRSGGSTYYADSVKGRFTISRDNAKNTVYLQMNSLKPDDTAVYYCNARTRYASKGGGARWDSYGYWGQGTQVTVSS | high polyreactivity
9 | QVQLVESGGGLVQAGGSLRLSCAASGITFSKYAMGWYRQAPGKERELVAAITTSGVSTYYADSVKGRFTISRDNAKNTVYLQMNSLKPEDTAVYYCATELGWGGFYKYGHASQFDYWGQGTQVTVSS | low polyreactivity
10 | QVQLVESGGGLVQAGGSLRLSCAASGRTFIYNAMGWYRQAPGKERELVAAISTSGGRTYYADSVKGRFTISRDNAKNTVYLQMNSLKPEDTAVYYCNAVRSYRMDYWGQGTQVTVSS | high polyreactivity
11 | QVQLQESGGGPVLAGGSLRLSCAASGTIFVPLDMGWYRQAPGKEREFVATIGSGSSTYYADSVKGSFTISRDNVKNTVYLQMNSLKPEDTAVYYCAVSAAEQSRHYYWDQGTQVTVSS | low polyreactivity
12 | QVQLVESGGGLVQAGGSLRLSCAASGITFHDNAMGWYRQAPGKERELVAGSTSGGSTFYADSVKGRFTISRDNAKNTVYLQMNSLKPEDTAVYYCAARRSKYRRGGGYYWGQGTQVTVSS | high polyreactivity
13 | QVQLVESGGGLVQAGGSLRLSCAASGSTFPVYAMGWYRQAPGKERELVAAISWRGDSTYYADSVKGRFTISRDNAKNTVYLQMNSLKPEDTAVYYCAASTGSVVRRYYYWGQGTQVTVSS | high polyreactivity
14 | QVQLVESGGGLVQAGGTLRLSCAASGFTFFSNAMGWYRQPPGKERELVAAIPTNGGSTYYADSVKGRFTISRDNAMNTVYLQMNSLKPEDTALYYCAAEYTVGGPYSYDFWGQGTQVTVSS | low polyreactivity
15 | QVQLEESGGGLVQAGGSLRLSCAASGYISRQSAMGWYSQAPGKERELVAAITRGGAGTYYAASVKGRFTISRDNAKHTVYLQMNSLKPEDTAVYYCAKTWVSRDVEYDYWGQGTQVTVSS | low polyreactivity
16 | QVQLVESGGGLVQARGSLRLSCAASGRILKRYAMGWYRQAPGKERELVAAISYGGGSTDYADSVKGRFTISRDNAKNTVYLQMNSLKPEDTAVYYCAAKVRYYLSLRGSTTRRDDYYWGQGTQVTVSS | low polyreactivity
17 | QVQLVESGGGLVQAGGSLRLSCAASGITFVINGMGWYRQAPGKESELLAAISKSGRTYYADSVKGRFTISRDNAKNTVFIQMNSLTPEDSAVYYCNNVPYPSNDYWGQGTQVTVSS | high polyreactivity
18 | QVQLVESGGGLVQAGGSLRLSCAASGSILVSYAMGWYRPAPGKERELVAAITSGGRTKYADSVKGRFTISRDNAKNTVYLQMNSLKPEDTAVYYCAADDPLSYQFDYWGQGTQVTVSS | high polyreactivity
19 | QVQLVESVGGLVQAGGSLRLICAASGSIFGVYAMGWYRQAPGKERELVAVIRWRGGSTYYADSVKGRFTISRDYAKNTVFLQMNILKPEDTAVYYCAARLHIVVATYDRRYDYWGQGTQVTVSS | low polyreactivity
20 | QVQLVESGGGLVQAGGSLRLSCAASGSIFWLYAMGWYRQAPGKERELVARINWSGGNTYYADSVKGRFTISRDNAKNTDYLQMNSLKPEDTAVYYCNARSQYRMNYWGQGTQVTGSS | low polyreactivity
21 | QVQLVESGGGLVQAGVSLRLSCAASGSIFSYNAMGWYRQAPGKERELVAAISRCSGSTYYADSVKGRFTISRDIAKNTVYLQMNSLKPEDTAVYYCAGRPKTIPSYYLGYHVRFDYWGQGTQVTVSS | low polyreactivity
22 | QVQLVESGVGLVQARGSLRLSCAASGITFRRYAMGWYRQPPGKERELVAAITSSGGSTYYADSVKGRFTIPRDNAKNTVYLQMNSLKPEDTAVYYCAAAFFSQYYLYDYWGQGTQVTVSS | high polyreactivity

Row | Sequence | polyreactivity (PSR sort gate)
23 | QVQLVESGGGLVQAGGSLRLSCAASGFIFLQNAMGWYRQAPGKERELVAVIRLSSCSTYYADSVKGRFTISRDNAKNTVYFEMNSLKPEDTAVYYCAARGYYSGQTTIGMDYWGQGTQVTVSS | low polyreactivity
24 | QVQLVESGGGLVQAGGSLRLSCAASGRIFGKNAMGWYIQAPRKERDLVAAITSTGGTTYYADSVMGRFTISRDNAKNTVYLQMNSLKPEDSAVYDCAKDGQTNNETQGLKYDYWGQGTQLTVSS | low polyreactivity
25 | QVQLVESGGGLVQAGGSLRLSCAASGSNFSYYAMGWYRQAPGKERELVAAITWRSGRTYYADSVKGRFTISRDNAKNTVYLQMNSLKPEDTAVYYCAAYWWRVKYHGYYYWGQGTQVTVSS | high polyreactivity
26 | QVQLVESGGGLVQAGGSLRISCAASGYIFKYAMGWYRQAPGKERELVAAISRRGGSTYYADSVKGRFTISRDNAKNTVYLQMNSLKPEDTEVYYCAARLPGYYGIGDYWGQGTQVTVSS | high polyreactivity
27 | QVQLVESGGGLVQAGGSLRLSCAASGITFNRYAMGWYRQAPGKERELVATISYRGGSTSYADSVKGRFTISRDNAKNTVYLQMNSLKPEDTAVYYCATDEGYVLFKYYSWGQGTQVTVSS | low polyreactivity
28 | QVQLVESGGGLVQAGGSLRLSCAASGRIFYRYAMGWYRQAPGKERELVAAISGSVGSTYADSVKGRFTISRDNAKNTVYLQMNSLKPEDTAVYYCARETYRRYGAYDYWGQGTQVTVSS | low polyreactivity
29 | QVQLVESGGGLVQAGGSLRLSCAASGSTFFEYTMGWYRQAPGKEREFVADIRGRDGSTSYADSVKGRFTISRDNAKNTVYLQMNSLKPEDTAVYYCAVGVYPSYRGPTFSTRRDYWGQGTQVTVSS | low polyreactivity
30 | QVQLVESGGGLVQAGGSLRLSCAASGNIIVFYAMGWYRQAPGKEREFVAAITSGGSTNYADSVKGRFTISRDNAKNTVYLQMNSLKPEDTAVYYCAGRQWFSHRRWGGSRYDYWGQGTQVTVSS | high polyreactivity
31 | QVQLVESGGGLVQAGGSLRLSCAASGSTFGRYVMGWYRQAPGKERELVAAISKNAGSTYYADSVKGRFTISRDNAKNTVYLHMNSLKPEDTAVYYCAADWRTKGYDSLGQGTQVTVSS | high polyreactivity
32 | QDQLVESGGGLVQAGGSLRLSCAASGFIFRWYAMGWYRQAPGKERELVAAISRSGDSTYYADSVKGRFTISRDNAKNTVYLQMNSLIPEDTAVYYCAADDRYYTYGYDYWGQGTQVTVSS | low polyreactivity
33 | QVQLVESGGGLVQAGGSLRLSCAASGSIFGLNAMGWYRQPPGKERELVAAINSDGDTYYADSVKGRFTISRDNAKNTVYLQMNSLKPEDTAVYYCSADYYWDPFDSNFGHVPQEYESWGQGTQVTVSS | low polyreactivity
34 | QVQLVESGGGLVQAGGSLRLSCADSGSIFYVYAMGWYRQAPGKERELVATISSSAGSTYYADSVKGRFTISRDNAKNTVYLQMNSLKPEDTAVYYCNADSFLSWVYRYVYYGSGYWGQGTQVTVSS | low polyreactivity
35 | QVQLVESGGGLVQAGGSLRLSCAASGSTFKRYAKGWYRQAPGKERELVAAITLSGGNTYYADSVKGRFTISRDNAKNTVYLQMNSLKPEDTAVYYCAARRYRGYDYWGQGTQVTVSS | high polyreactivity
36 | QFQLVESGGGLVQAGGSLRLSCAASGFIFGYNAMGWYRQAPGKERELVAAINWSGDITYYADSVKGRFTISRDNAKNTVYLQMNSLKPEDTAVYYCAADDYYIPSSWDFDYWGQGTQVTVSS | low polyreactivity
37 | QVQLVESGGGLVQAGGCLRLSCAASGSTFPRNAMGWYRQAPGKERELVATITSSGGGTYYADSVKGRFTISRDNAKNTVYLQMNILKPEDTAVYYCNADGPAGDAFDYCGQGTQVTVSS | low polyreactivity
38 | QVQLVESGGGLVQAGGSLRLSCAASGFTFASYAMGWYRQAPGKERELVAAITRRGGSTNYADSVKGRFTISRDNAKNTVFLQMNSLKPEDTAVYYCNALHGVWYPAYDYWGQGTQVTVSS | low polyreactivity
39 | QVQLVESGGGLVQAGGSLRLSCAASGRTFVGNGKGWYRLAPGKERELLASISFSGGAGTYYADSVKGRFTISRDNAKYTVYLQMNSLKPEDTAVYYCAKRYVTPTYRRYYWGPGTQVTVSS | high polyreactivity
40 | QVQLVESGGGLVQAGGSLRLSCAASGSIFSTYAMGWYRQAPGKERELVAAISVSGSSTYYADSVKGRFTISRDNAKNTVYLQMNSLKPEDTAVYYCNKAFRSVRPRRRYDYWGQGTQVTVSS | low polyreactivity
41 | QVQLVESGGGLVQAGGSLRLSCAASGITFPLYVMGWYRQAPGKERELVAAISASGGSTYADSVKGRFTISRDNAKNTVYLQMNSLKPEDTAVYYCNADVYVGYEYVYWGQGTQVTVSS | low polyreactivity
42 | QVQLVESGGGLVQAGGSLRLSCAASGRTFHRYAMGWYRQAPGKERELVAAINWRGGSTYYADSVKGRFTISRDNAKNTVYLQMNILKPEDTEVYYCAAKTTTPYRYIYYYWGQGTQVTVSS | high polyreactivity
43 | QVQLVESGGGLVQAGGSLRLSCAASGFTFISNAMGWYRQAPGKERELVAAISSSGGRTYYADSVKGRFTISRDNAKNTVYLQMNRLKPEDTAVYYCYADRSLLYSRKIEYDYWGQGTQVTVSS | low polyreactivity
